Drawing on publication PMC8659191, “Expressed Soybean Leghemoglobin: Effect on Escherichia coli at Oxidative and Nitrosative Stress” (Molecules, 2021), this text covers Km for one substance.

One may read the Km as the substrate concentration at which the rate is half of its maximum.

The data set has as its system CC(C)(C)OO. In words: purified protein. The following applies: pH 7.4; 25.0 °C.

On to “Lba (soybean leghemoglobin a, recombinant, ferric metLb) (Glycine max)”, for which the Km was 5.4 ± 0.05 mM.
